Residue numbers refer to the chain shown, from its start. Names and notes keep the numbering of the source.
B1: chimeric 5/44 variant K60R (antibody, V domains shown)
VH: EVQLQQSGTVLARPGASVKMSCKASGYRFTNYWIHWVKQRPGQGLEWIGGINPGNNYTTYRRNLKGKATLTAVTSASTAYMDLSSLTSEDSAVYYCTREGYGNYGAWFAYWGQGTLVTVSS
VL: DVVVTQTPLSLPVSFGDQVSISCRSSQSLANSYGNTFLSWYLHKPGQSPQLLIYGISNRFSGVPDRFTGSGSGTDFTLKISTIKPEDLGMYYCLQGTHQPYTFGGGTKLEIKR
B2: chimeric 5/44 variant N55Q (antibody, V domains shown)
VH: B1 VH with N56Q, R61K
VL: B1 VL
B3: chimeric 5/44 variant T57A (antibody, V domains shown)
VH: B1 VH with T58A, R61K
VL: B1 VL

These binders were tested against CD22mFc (UniProt P20273 20-687) (assay: Biacore).

Kd [nM] | Binder
0.204 | B1
0.327 | B2
0.066 | B3

Source: patent publication US20040192900A1 (published 2004)
